Measurements: publication PMC6168553 (Nature Communications, 2018)

Legend:
[1] = target: the molecule itself; test: negative-stain EM; void-volume fraction of size-exclusion chromatography after cleavage of the MBP tag by TEV
[2] = target: T1, NOD2ΔLRR (residues 1-619), MBP tag cleaved (human, UniProt Q9HC29 1-619); test: immuno-gold labelling with negative-stain EM; purified NOD2ΔLRR mixed with a 50-fold excess of MBP-RIP2CARD, polymerization induced by TEV; rabbit anti-NOD2 and gold-conjugated anti-rabbit; settings: both partners purified
T1 construct: NOD2 (nucleotide oligomerization domain 2), human, CARDS and NOD without the LRR domain, residues 1-619; A less aggregated SEC fraction was used; the protein forms soluble aggregates; also called MBP-NOD2ΔLRR before cleavage; source: sf21 insect cells (baculovirus), purified (amylose resin, TEV cleavage, size exclusion chromatography); not shown: MBP, N-terminal, cleaved
T1 sequence (Q9HC29 1-619, stated change not applied): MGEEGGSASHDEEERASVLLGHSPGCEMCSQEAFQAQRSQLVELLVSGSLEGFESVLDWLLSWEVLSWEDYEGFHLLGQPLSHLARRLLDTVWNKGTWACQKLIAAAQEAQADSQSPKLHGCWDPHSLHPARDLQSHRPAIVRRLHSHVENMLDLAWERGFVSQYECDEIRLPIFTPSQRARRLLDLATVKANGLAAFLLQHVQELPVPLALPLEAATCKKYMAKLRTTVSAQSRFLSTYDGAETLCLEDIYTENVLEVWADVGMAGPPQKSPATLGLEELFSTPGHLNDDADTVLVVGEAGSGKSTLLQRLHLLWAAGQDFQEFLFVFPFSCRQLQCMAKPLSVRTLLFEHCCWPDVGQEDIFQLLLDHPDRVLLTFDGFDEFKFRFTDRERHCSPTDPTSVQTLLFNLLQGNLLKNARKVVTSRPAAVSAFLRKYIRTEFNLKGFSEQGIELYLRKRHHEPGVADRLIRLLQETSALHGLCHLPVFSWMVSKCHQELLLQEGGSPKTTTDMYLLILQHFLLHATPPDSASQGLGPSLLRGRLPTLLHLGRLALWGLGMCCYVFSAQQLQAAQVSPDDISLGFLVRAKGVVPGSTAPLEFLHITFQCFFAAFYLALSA

[3] = target: the molecule itself; test: cryo-EM structure; helical reconstruction of NOD2CARDS^s-RIP2CARD filaments, filament ends left out; 3.94 Å
[4] = target: the molecule itself; test: negative-stain EM; amylose eluate (with co-purified NOD2CARDS^s) at 2.5 mg ml^−1, polymerization stimulated by proteases for 4 h at room temperature

| Binder | binding result [4] | further results |
| --- | --- | --- |
| RIP2CARD (residues 435-540), MBP tag cleaved (domain or fragment, human, UniProt O43353 435-540, looked up, RIP2 CARD domain, human, residues 435-540; Isotope-labelled for solid-state NMR; also called RIP2CARD VV; RIP2CARD filament; source: E. coli Rosetta 2 (BL21 star for NMR), purified (amylose resin), MBP cleaved by TEV; not shown: MBP, N-terminal, cleaved) IAQQWIQSKREDIVNQMTEACLNQSLDALLSRDLIMKEDYELVSTKPTRTSKVRQLLDTTDIQGEEFAKVIVQKLKDNKQMGLQPYPEILVVSRSPSLNLLQNKSM |  | binding result [1]: binds; binding result [2]: binds |
| RIP2CARD (residues 431-540), wild type, HIS-MBP tag cleaved (domain or fragment, human, UniProt O43353 431-540, looked up, RIP2 CARD domain, human, residues 431-540; The atomic model of the filament comprises residues P433 to Q518; also called RIP2CARD filament; NOD2CARDS^s-WT; source: E. coli Rosetta 2, purified (amylose resin, Superose6), HIS-MBP cleaved by P3C, Ni-NTA, dialysis; not shown: His, N-terminal, cleaved; MBP, N-terminal, cleaved) LQPGIAQQWIQSKREDIVNQMTEACLNQSLDALLSRDLIMKEDYELVSTKPTRTSKVRQLLDTTDIQGEEFAKVIVQKLKDNKQMGLQPYPEILVVSRSPSLNLLQNKSM |  | binding result [3]: binds |
| RIP2CARD (431-540) T452K, HIS-MBP tag cleaved (domain or fragment, human, UniProt O43353 431-540, looked up, RIP2 CARD domain, human, residues 431-540; also called RIP2CARD-T452K; NOD2CARDS^s-T452K; source: E. coli Rosetta 2, co-purified with NOD2CARDS^s on amylose resin, tags cleaved by proteases; not shown: His, N-terminal, cleaved; MBP, N-terminal, cleaved) LQPGIAQQWIQSKREDIVNQMKEACLNQSLDALLSRDLIMKEDYELVSTKPTRTSKVRQLLDTTDIQGEEFAKVIVQKLKDNKQMGLQPYPEILVVSRSPSLNLLQNKSM | binds |  |
| RIP2CARD (431-540) C455A, HIS-MBP tag cleaved (domain or fragment, human, UniProt O43353 431-540, looked up, RIP2 CARD domain, human, residues 431-540; source: E. coli Rosetta 2, co-purified with NOD2CARDS^s on amylose resin, tags cleaved by proteases; not shown: His, N-terminal, cleaved; MBP, N-terminal, cleaved) LQPGIAQQWIQSKREDIVNQMTEAALNQSLDALLSRDLIMKEDYELVSTKPTRTSKVRQLLDTTDIQGEEFAKVIVQKLKDNKQMGLQPYPEILVVSRSPSLNLLQNKSM | binds |  |
| RIP2CARD (431-540) T452A, HIS-MBP tag cleaved (domain or fragment, human, UniProt O43353 431-540, looked up, RIP2 CARD domain, human, residues 431-540; source: E. coli Rosetta 2, co-purified with NOD2CARDS^s on amylose resin, tags cleaved by proteases; not shown: His, N-terminal, cleaved; MBP, N-terminal, cleaved) LQPGIAQQWIQSKREDIVNQMAEACLNQSLDALLSRDLIMKEDYELVSTKPTRTSKVRQLLDTTDIQGEEFAKVIVQKLKDNKQMGLQPYPEILVVSRSPSLNLLQNKSM | binds |  |
| RIP2CARD (431-540) E453A, HIS-MBP tag cleaved (domain or fragment, human, UniProt O43353 431-540, looked up, RIP2 CARD domain, human, residues 431-540; source: E. coli Rosetta 2, co-purified with NOD2CARDS^s on amylose resin, tags cleaved by proteases; not shown: His, N-terminal, cleaved; MBP, N-terminal, cleaved) LQPGIAQQWIQSKREDIVNQMTAACLNQSLDALLSRDLIMKEDYELVSTKPTRTSKVRQLLDTTDIQGEEFAKVIVQKLKDNKQMGLQPYPEILVVSRSPSLNLLQNKSM | binds |  |
| RIP2CARD (431-540) C455S, HIS-MBP tag cleaved (domain or fragment, human, UniProt O43353 431-540, looked up, RIP2 CARD domain, human, residues 431-540; also called RIP2CARD-C455S; NOD2CARDS^s-C455S; source: E. coli Rosetta 2, co-purified with NOD2CARDS^s on amylose resin, tags cleaved by proteases; not shown: His, N-terminal, cleaved; MBP, N-terminal, cleaved) LQPGIAQQWIQSKREDIVNQMTEASLNQSLDALLSRDLIMKEDYELVSTKPTRTSKVRQLLDTTDIQGEEFAKVIVQKLKDNKQMGLQPYPEILVVSRSPSLNLLQNKSM | binds |  |
